Test system: NIH3T3 cells expressing AcGFP-PDE5A fusions
Assay: FACS analysis of C-terminal PDE5A mutants (AcGFP-PDE5A fusions), Sildenafil vs vehicle
Type: cell-based, mouse
Conditions: Table 2, 24 hours; for Mean Fluorescence intensity: NIH3T3
Procedure: The NIH3T3 cell line was cultured in DMEM supplemented with 10% heat-inactivated donor bovine serum (Invitrogen), 2 mM glutamine, 100 U/ml penicillin and 100 μg/ml streptomycin.
The ΦNX ecotropic packaging cell line was transfected using standard Lipofectamine 2000 protocols. Viral supernatants were harvested 48 hours, post transfection, filtered and concentrated 10-fold using Amicon Ultra centrifugal filter device with a 100kDa cutoff. NIH 3T3 cells were incubated with concentrated retroviral supernatants supplemented with 4 μg/ml polybrene for 4 hours at 37° C. Cells were washed once with PBS and cultured in growth media for 24-36 hours to allow for viral integration.
The transduced NIH3T3 cells were subjected to analysis using fluorescence-activated cell sorting (FACS) to screen the libraries of PDE5A mutants. 24 hours prior to analysis, transduced NIH3T3 cells were plated at 1×10^5 cells per well of a 12-well plate. Cells were removed from the plate using PBS and 2 mM EDTA, washed once with PBS, and resuspended in 200 μL, PBS. […]
To identify destabilizing domains that are responsive to the PDE5A ligand, Sildenafil, a cell-based screening assay was employed in which the fluorescence of green fluorescent protein derived from Aequorea coerulescens (AcGFP) served as an indicator of PDE5A stability. […]
A library of AcGFP-PDE5A fusions i.e., C-terminal PDE5A mutants was screened using the cell-based screening assay described previously to identify C-terminal destabilizing domains. […] The stabilization ratio was calculated as the fold change in GFP intensity of the AcGFP-PDE5A construct in Sildenafil treated sample compared to vehicle alone treated sample. […]
Residue D764 was identified as a mutational hotspot from sequence analysis. […] AcGFP-PDE5A variants were evaluated for Sildenafil dependent stabilization via FACS as described previously. […] The stabilization ratio was calculated as the fold change in GFP intensity of the AcGFP-PDE5A construct in Sildenafil treated sample compared to vehicle alone treated sample. […]

B1: PDE5AC (#42): AcGFP fused to C-terminal DD 535-860 of PDE5A (E535D, K555R, F564S, Q589R, K630R, C677R, N742S, I799T, M816A), SEQ ID NO. 28 (protein)
chain: DETRELQSLAAAVVPSAQTLRITDFSFSDSELSDLETALCTIRMFTDLNLVQNFRMKHEVLCRWILSVKKNYRKNVAYHNWRHAFNTAQCMFAALRAGKIQNKLTDLEILALLIAALSHDLDHRGVNNSYIQRSEHPLAQLYRHSIMEHHHFDQCLMILNSPGNQILSGLSIEEYKTTLKIIKQAILATDLALYIKRRGEFFELIRKSQFNLEDPHQKELFLAMLMTACDLSAITKPWPIQQRIAELVATEFFDQGDRERKELNTEPTDLMNREKKNKIPSAQVGFIDAICLQLYEALTHVSEDCFPLLDGCRKNRQKWQALAEQQ
modifications: /note=“Description of Artificial Sequence Synthetic Destabilizing Domain (DD)”
Q: B1 was tested. Which “Mean Fluorescence intensity” value (Sildenafil (10 μM) +) did it give?
A: 5861

Q: And the “Mean Fluorescence intensity” value (Sildenafil (10 μM) −, vehicle alone)?
A: 1658

Q: And the Stabilization ratio (fold change in GFP intensity, Sildenafil 10 μM vs vehicle alone)?
A: 3.5
